Biological target: T1, CD5 antigen on T cells (Jurkat, Molt-4, gamma delta T cells) (UniProt P06127 25-495, limits assumed)
T1 sequence (looked up): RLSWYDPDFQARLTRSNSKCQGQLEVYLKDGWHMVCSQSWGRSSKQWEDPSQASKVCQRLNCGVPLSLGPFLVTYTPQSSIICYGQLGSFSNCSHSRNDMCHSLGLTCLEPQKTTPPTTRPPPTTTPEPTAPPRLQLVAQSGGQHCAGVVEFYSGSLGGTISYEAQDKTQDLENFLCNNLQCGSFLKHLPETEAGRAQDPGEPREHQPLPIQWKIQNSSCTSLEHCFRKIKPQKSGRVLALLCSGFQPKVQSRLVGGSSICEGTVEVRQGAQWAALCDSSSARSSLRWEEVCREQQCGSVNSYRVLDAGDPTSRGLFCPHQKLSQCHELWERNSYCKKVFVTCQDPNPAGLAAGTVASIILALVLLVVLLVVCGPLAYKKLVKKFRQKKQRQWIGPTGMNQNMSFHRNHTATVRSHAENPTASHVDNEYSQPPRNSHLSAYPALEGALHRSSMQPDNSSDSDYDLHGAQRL
Experiment: cell-based or functional assay

B1: CD5-NSCAR (CD5 scFv non-signaling chimeric antigen receptor) (other)
chain: GAPEIQLVQSGGGLVKPGGSVRISCAASGYTFTNYGMNWVRQAPGKGLEWMGWINTHTGEPTYADSFKGRFTFSLDDSKNTAYLQINSLRAEDTAVYFCTRRGYDWYFDVWGQGTTVTVSSGGGGSGGGGSGGGGSDIQMTQSPSSLSASVGDRVTITCRASQDINSYLSWFQQKPGKAPKTLIYRANRLESGVPSRFSGSGSGTDYTLTISSLQYEDFGIYYCQQYDESPWTFGGGTKLEIKASEQKLISEEDLDNEKSNGTIIHVKGKHLCPSPLFPGPSKPFWVLVVVGGVLACYSLLVTVAFIIFWVRSEWPGKVR
  CD5 expression on non-modified Jurkat T cells in co-culture with CD5-NSCAR-modified Jurkat T cells, 1:1 ratio: < 20%

— patent US20220378827A1 (EMORY UNIVERSITY, published 2022)
